Assay results reported in patent publication US12319742 (SHATTUCK LABS, dated 2025).
Residue numbers refer to the chain shown, from its start. Names may count otherwise. One block for each binder: values may come before it.

Key:
[1] = molecular target: T1, biotinylated recombinant human TNFRSF25-His tagged (Acro #TN5-H52H3) (human, UniProt Q93038 25-199, biotinylated); assay: BLI/Octet Red 96e; biotinylated TNFRSF25-His on streptavidin biosensor; 600 s association, 600 s dissociation
T1 construct: treated as the same protein; also called recombinant biotin-conjugated human TNFRSF25 protein; DR3
T1 sequence (looked up): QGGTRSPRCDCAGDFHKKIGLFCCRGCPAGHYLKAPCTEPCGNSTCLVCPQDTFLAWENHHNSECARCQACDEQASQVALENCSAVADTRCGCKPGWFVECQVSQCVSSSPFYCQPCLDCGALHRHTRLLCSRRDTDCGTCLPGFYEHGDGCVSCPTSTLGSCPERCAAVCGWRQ
Description: Figure 4: FIG. 4. TNFRSF25 binding affinity of anti-TNFRSF25 antibodies. BLI assay was performed using the Octet Red 96e instrument. Streptavidin biosensors were loaded with biotinylated recombinant human TNFRSF25-His tagged (Acro #TN5-H52H3) as the ligand. During the association phase, biosensors were incubated with anti-TNFRSF25 antibodies at various concentrations for 600 seconds, followed by a 600-second dissociation phase.
(§1) To detect binding of certain whole antibodies to human TNFRSF25, streptavidin biosensors were loaded with biotinylated recombinant human TNFRSF25-His tagged (Acro #TN5-H52H3) as the ligand. During the association phase, biosensors were incubated with anti-TNFRSF25 antibodies at various concentrations for 600 seconds, followed by a 600 second dissociation phase.

[2] = molecular target: T1, biotinylated recombinant human …; assay: BLI/Octet; biotinylated TNFRSF25 on streptavidin sensor, mAb in solution; 1:1 Langmuir model
Description: Provided herein are monoclonal and biparatopic antibodies that specifically target human TNFRSF25. The monoclonal antibodies were produced in an engineered CHOK1 cell-line by transfecting the cells with vectors genetically encoding the Heavy and Light chain antibody sequences followed by a single-step affinity-capture chromatography using FcXL resins. The final monoclonal antibody preparation was buffer exchanged into PBS, pH 7.4. Production of biparatopic antibodies followed a two-step process. In the first step of the process, the so called Knob-half (or Hole-half) antibody was produced by transfecting an engineered CHOK1 cell-line with vectors genetically encoding the Knob (or the Hole) Heavy chain and the corresponding Light chain sequences. The CHOK1-cell-harvest from the Knob-half antibody and Hole half-antibody was then purified by Protein A column-based chromatography. In the second step of the process, the two half-antibodies were reassembled into the desired biparatopic format by the use of a mild reduction step followed by quenching the reaction with buffer exchange into PBS, pH 7.4. To detect binding of the antibodies to human TNFRSF25, recombinant biotin-conjugated human TNFRSF25 protein was immobilized onto a streptavidin-coated MSD (Meso Scale Discovery) plate and allowed to bind the anti-TNFRSF25 mAbs in solution. Following a washing step, the bound antibodies were detected using a sulfo-tagged anti-human Fc antibody. The results of these MSD assays are shown in arbitrary units (au) on the y-axis of FIG. 1. To determine the binding affinity of the antibodies to recombinant human TNFRSF25 protein, recombinant biotin-conjugated human TNFRSF25 protein was immobilized onto a streptavidin-coated BLI sensor and allowed to bind the anti-TNFRSF25 mAbs in solution phase. The binding affinity (K_D) was calculated using the on-rates (Ka) and off-rates (Kd) of mAb binding to the target using a 1:1 Langmuir binding model in the ForteBio data analysis software.

[3] = molecular target: T1, biotinylated recombinant human …; assay: MSD competition; TNFRSF25 on plate, antibody titrated, then TL1A-rabbit Fc 0.4 µg/ml as competitor
Description: (§2) Figure 6: FIG. 6. […] Human TNFRSF25 was precoated on MSD assay plates followed by incubating with various concentrations of anti-TNFRSF25 antibodies.

[4] = molecular target: FcγR1 (CD64), BLI reagent (UniProt P12314 16-288, limits assumed); assay: BLI; antibody as analyte at 300 nM on FcγR1
[5] = molecular target: T2, biotinylated recombinant human FcRn-His tagged protein (Acro #FCM-H82W7) (human, UniProt P55899 24-297; P61769 21-119, biotinylated); assay: BLI/Octet; biotinylated human FcRn-His on streptavidin biosensor
T2 construct: also called hFcRn; neonatal Fc receptor
Description: (§3) Figure 5D: FIG. 5D. FcRn binding kinetics by anti-TNFRSF25 antibodies. BLI assay was performed using the Octet Red 96e instrument. Streptavidin biosensors were loaded with biotinylated recombinant human(h) FcRn-His tagged protein (Acro #FCM-H82W7) as the ligand. During the association phase, biosensors were incubated with anti-DR3 candidate antibodies at various concentrations for 600 seconds, followed by a 600-second dissociation phase.
as §1, with “the neonatal Fc receptor (FcRn) at neutral and acidic pH conditions,” for “human TNFRSF25,”, “FcRn-His” for “TNFRSF25-His”, “tagged protein” for “tagged”, “#FCM-H82W7)” for “#TN5-H52H3)”

[6] = molecular target: T2, biotinylated recombinant human FcRn-His …; assay: BLI/Octet; biotinylated human FcRn-His on streptavidin biosensor; pH 6.0
Description: as §3
as §1, with “the neonatal Fc receptor (FcRn) at neutral and acidic pH conditions,” for “human TNFRSF25,”, “FcRn-His” for “TNFRSF25-His”, “tagged protein” for “tagged”, “#FCM-H82W7)” for “#TN5-H52H3)”

[7] = molecular target: T1, biotinylated recombinant human …; assay: MSD competition (lower panel); antibody on TNFRSF25-coated plate, wash, then TL1A-rabbit Fc at 0.4 ug/ml, sulfo-tag anti-rabbit detection; raw MSD signal
Description: as §2

[8] = molecular target: T2, biotinylated recombinant human FcRn-His …; assay: BLI/Octet; biotinylated human FcRn-His on streptavidin biosensor; pH 7.4
Description: as §3
as §1, with “the neonatal Fc receptor (FcRn) at neutral and acidic pH conditions,” for “human TNFRSF25,”, “FcRn-His” for “TNFRSF25-His”, “tagged protein” for “tagged”, “#FCM-H82W7)” for “#TN5-H52H3)”

[9] = molecular target: T1, biotinylated recombinant human …; assay: MSD competition; scFv supernatant serially diluted on TNFRSF25-coated plate, then TL1A added and the remaining TL1A detected
Description: (FIG. 2A) TNFRSF25 was precoated on MSD assay plates followed by adding scFv supernatant at 2-fold serial-dilutions followed by detection of the myc tag present on the C-terminus of the scFv's. (FIG. 2B) scFv supernatant were serially diluted and added to an MSD-plate pre-coated with TNFRSF25.

Chain of FcγR1 (CD64), BLI reagent (P12314 16-288 limits assumed): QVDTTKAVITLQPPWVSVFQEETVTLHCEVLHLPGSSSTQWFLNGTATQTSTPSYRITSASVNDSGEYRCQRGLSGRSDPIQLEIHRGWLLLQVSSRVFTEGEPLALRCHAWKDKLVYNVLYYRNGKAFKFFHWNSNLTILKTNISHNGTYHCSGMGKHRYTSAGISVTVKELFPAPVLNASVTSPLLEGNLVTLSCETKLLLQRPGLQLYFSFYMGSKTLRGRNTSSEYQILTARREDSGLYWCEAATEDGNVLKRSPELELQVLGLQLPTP

B1: NH46 (whole antibody) (antibody, human IgG1, kappa, V domains shown)
VH: QVQLVQSGSEVKKPGASVRVSCKVSGSTVKELSMHWVRQAPGKGLEWMGGYDPEDGESIFAQKFQGRVNMTEDRSTDTAYMELSSLRSEDTAVYYCATDLNWEDAFDVWGQGTMVTVSS
VL: QSVLTQPPSVSAAPGQKVTISCSGSGSNIGNYYVAWYQQFPGTAPKLLIYDNNKRPSGIPDRFSGSKSGTSATLGITGLQTGDEADYYCGTWDTSLTAGDIYVFGTGTKVTVLR
Response (RU) [1]: 1.06 RU | koff [1]: 8.54e-05 s⁻¹ | kon [1]: 452000 M⁻¹ s⁻¹ | Kd [2]: 0.185 nM | IC50 [3]: 0.26 nM

B4: SL-061_LS (antibody, human IgG1, kappa)
heavy: QVQLQQSGPGLVKPSQTLSLTCAISGDSVSGYSAAWNWIRQSPSRGLEWLGRTYYRSKWYNDYAVSVKSRITINPDTSKNQFSLQLNSVTPEDTAVYYCARDYYGSESYYNRGYYYYGMDVWGQGTTVTVSSASTKGPSVFPLAPSSKSTSGGTAALGCLVKDYFPEPVTVSWNSGALTSGVHTFPAVLQSSGLYSLSSVVTVPSSSLGTQTYICNVNHKPSNTKVDKKVEPKSCDKTHTCPPCPAPEAAGAPSVFLFPPKPKDTLMISRTPEVTCVVVDVSHEDPEVKFNWYVDGVEVHNAKTKPREEQYNSTYRVVSVLTVLHQDWLNGKEYKCKVSNKALPAPIEKTISKAKGQPREPQVYTLPPSREEMTKNQVSLTCLVKGFYPSDIAVEWESNGQPENNYKTTPPVLDSDGSFFLYSKLTVDKSRWQQGNVFSCSVLHEALHSHYTQKSLSLSPGK
light: AIQLTQSPSSLSASVGDRVTITCRASPGISSALAWYQQKPGKAPKLLMYDESSQESGVPSRFSGSGSGTDFTLTISSLQPEDFATYYCQQFNDYPLTFGGGTKVEIKRTVAAPSVFIFPPSDEQLKSGTASVVCLLNNFYPREAKVQWKVDNALQSGNSQESVTEQDSKDSTYSLSSTLTLSKADYEKHKVYACEVTHQGLSSPVTKSFNRGEC
notes: SL-061 with LS half-life extension changes in the Fc
fold improvement in binding affinity at pH 6.0 compared to pH 7.4 [5]: ~10 fold | Kd [6]: 0.879 nM | koff [6]: 0.000181 s⁻¹ | kon [6]: 206000 M⁻¹ s⁻¹ | IC50 (read off the curve) [7]: ~0.2 nM | Kd [8]: 6.78 nM | koff [8]: 0.00144 s⁻¹ | kon [8]: 213000 M⁻¹ s⁻¹

B5: NH24-47 (scFv, not shown: small tags and cut ends)
scFv: EVQLVESGGGSVQPGGSLRLSCAASGFTFSSYGMSWVRQAPGKGLEWISYISSSGGHTYYADSVKGRFTISRDNAKNSLYLQMNSLRAEDTAVYYCARYSGAFDRWGQGTPVTVSSGGRGSGGGGSGSGGSDIVMTQSPSSLSASVGDRVTITCQASQDISNYLSWYQQKPGKAPKLLISDASNLETGVPSRFSGSGSGTDFTFTISSLQPEDIATYYCQQYDNLPITFGQGTRLEIKR
notes: one of the four variants of group m25; used as unpurified E. coli supernatant; the sheet prints NH24-47; also called NH24-47 scFv
binding result [9]: binds

B6: NH24-72 (scFv, not shown: small tags and cut ends)
scFv: B5 scFv with S35N, V37I, S49T, Y99G, S100Q, A102P, D104E, R105Y, P111L, S180N
notes: one of the four variants of group m25; used as unpurified E. coli supernatant; the sheet prints NH24-72; also called NH24-72 scFv
binding result [9]: binds

B7: SL-038 (antibody, human IgG1, kappa, L234A L235A, V domains shown)
VH: EVQLVESGGGLSQPGNSLQLSCEASGFTFSNHDMNWVRQAPGKGLEWVAYISSASGLISYADSVRGRFTISRDNAKNSLFLQMNNLKSEDTAMYYCARDPAYSGNYALDFWGQGTQVTVSS
VL: QPVLTQSPSASASLSGSVKLTCTLSSELSSYTIVWYQQQPDKAPKYVMYLKSDGSHGKGDGIPDRFSGSSSGAHRYLSVSNVQSEDDATYFCGAGYTLAGQYGWVFGSGTKVTVLR
Kd [2]: 3.6 nM

More lines, now with the values ahead:

Kd [2]: < 1 nM | binding result [4]: no binding (tested: 300 nM)
B2: SL-034 (antibody, human IgG1, kappa, L234A L235A, N297A)
heavy: B4 heavy with A252G, N312A, L443M, S449N
light: B4 light
notes: Same variable regions as SL-033; also called clone 034; L234A/L235A+N297A

fold improvement in binding affinity at pH 6.0 compared to pH 7.4 [5]: ~10 fold | Kd [6]: 0.966 nM | koff [6]: 0.000193 s⁻¹ | kon [6]: 200000 M⁻¹ s⁻¹ | IC50 (read off the curve) [7]: ~0.07 nM | Kd [8]: 8.08 nM | koff [8]: 0.00179 s⁻¹ | kon [8]: 222000 M⁻¹ s⁻¹
B3: SL-061_YTE (antibody, human IgG1, kappa)
heavy: B4 heavy with M267Y, S269T, T271E, L443M, S449N
light: B4 light
notes: SL-061 with YTE half-life extension changes in the Fc

Response (RU) [1]: 0.73 RU | koff [1]: 0.000742 s⁻¹ | kon [1]: 1.26e+06 M⁻¹ s⁻¹ | Kd [2]: 0.59 nM | IC50 [3]: 39.4 nM
B8: NH24 (whole antibody) (antibody, human IgG1, kappa, V domains shown)
VH: EVQLVESGGGSVQPGGSLRLSCAASGFTFSSYGMSWIRQAPGKGLEWISYISSSGGHTYYADSVKGRFTISRDNAKNSLYLQMNSLRAEDTAVYYCARGSGSFDYWGQGTLVTVSS
VL: DIVMTQSPSSLSASVGDRVTITCQASQDITNYLSWYQQKPGKAPKLLISDASNLETGIPSRFSGSGSGTDFTFTISSLQPEDIATYYCQQYDTLPITFGQGTRLEIKR
